This is an account of results in patent US20240016892A1 (SHATTUCK LABS, published 2024).

The target in one experiment is T1, recombinant human LTβR (human, UniProt P36941 31-227, limits assumed).
T1 construct: Bought from Acro Biosystems or Sino Biological; construct limits and tag not specified; also called rhLTβR; TNFRSF3
The experiment is described as follows: BLI (Octet-Red96), tagged rhLTβR immobilised on biosensor. On the procedure: Bio-Layer interferometry-based affinity testing was used to determine the on-rates (Ka), off-rates (Kd) and binding affinities (KD) of the TIGIT-Fc-LIGHT chimeric protein to intended binding targets, using histidine- or biotin-tagged versions of the human recombinant proteins (PVR, HVEM, LTβR, PVRL2, PVRL3, and Nectin-4; purchased from Acro Biosystems or Sino Biological). Commercially available or internally produced single-sided fusion protein controls (TIGIT-Fc and Fc-LIGHT) were also tested in parallel. Targets were immobilized at a concentration of 3 μg/mL in Kinetics buffer (PBS/0.1% Tween-20/1% BSA; pH7.0) to anti-pentaHis or streptavidin coated biosensors. Direct binding of fusion proteins to recombinant target proteins was performed on an Octet-Red96 BLI instrument, using association and dissociation times of 90 and 120 seconds, respectively.
Protein-protein interactions (PPI) between the fusion proteins and their cognate binding partners were characterized using both recombinant protein and cell-based methods. First, bio-layer interferometry-based affinity testing was used to assess the kinetics of receptor/ligand binding.
A general note: BLI is a label-free optical method that tracks binding on a fibre tip over time.

In experiment [1] the target is T2, recombinant human HVEM-Fc (human, UniProt Q92956 39-202, limits assumed).
T2 construct: also called human recombinant HVEM (MSD plates); not shown: Fc of the bought fusion (Acro Biosystems); not described
T2 sequence (looked up): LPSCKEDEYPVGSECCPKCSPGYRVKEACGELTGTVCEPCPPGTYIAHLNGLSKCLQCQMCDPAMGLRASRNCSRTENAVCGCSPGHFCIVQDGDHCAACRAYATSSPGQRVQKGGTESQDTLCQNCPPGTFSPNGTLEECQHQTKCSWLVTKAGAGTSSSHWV
Kind of experiment: MSD sandwich 'Dual - Potency #2': capture HVEM-Fc, TIGIT-Fc-LIGHT titrated, detection PVR-Biotin. On the procedure: For the TIGIT-Fc-LIGHT chimeric protein; MSD Multi-Array plates (MSD) were pre-coated overnight with recombinant human LTβR-Fc or HVEM-Fc (Acro Biosystems) at 4° C. The plates were blocked with Diluent 100 (MSD) for at least one hour at room temperature on a shaker. After washing, analysis samples were added and then serially diluted 3-fold and loaded in duplicate wells to generate 8-10 test concentrations. The bound the TIGIT-Fc-LIGHT chimeric protein was detected with recombinant biotinylated human PVR (Acro Biosystems). Streptavidin conjugated to ruthenium (MSD), was added to bind the biotin labeled detector. MSD Gold Reading buffer (MSD) was added to the plate, and upon application of an electrical charge, an electrochemiluminescent signal was produced and detected with the MSD MESO QuickPlex SQ 120MM, Model 1300, to generate relative light units (RLU). Analogous assays were performed using mTIGIT-Fc-LIGHT and murine recombinant PVR, HVEM, and […] (Acro Biosystems).
The binding of the TIGIT-Fc-LIGHT chimeric protein to its receptors was characterized by Meso Scale Discovery (MSD) ELISA assays. […] Binding of the chimeric protein to LTβR-Fc was detected using an PVR-Biotin and using an electrochemiluminescence (ECL) readout. […] Binding of the chimeric protein to HVEM-Fc was detected using an PVR-Biotin and using an electrochemiluminescence (ECL) readout. […]

T1 sequence (P36941 31-227 limits assumed): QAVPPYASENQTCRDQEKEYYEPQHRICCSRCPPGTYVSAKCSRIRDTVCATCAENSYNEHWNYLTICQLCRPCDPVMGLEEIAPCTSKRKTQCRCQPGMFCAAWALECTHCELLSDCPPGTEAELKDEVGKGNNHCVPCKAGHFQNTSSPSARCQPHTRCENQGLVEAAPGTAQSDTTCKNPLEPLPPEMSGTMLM

B1: human TIGIT-Fc-LIGHT chimeric protein (Fc fusion)
chain: MMTGTIETTGNISAEKGGSIILQCHLSSTTAQVTQVNWEQQDQLLAICNADLGWHISPSFKDRVAPGPGLGLTLQSLTVNDTGEYFCIYHTYPDGTYTGRIFLEVLESSVAEHGARFQIPSKYGPPCPPCPAPEFLGGPSVFLFPPKPKDQLMISRTPEVTCVVVDVSQEDPEVQFNWYVDGVEVHNAKTKPREEQFNSTYRVVSVLTVLHQDWLSGKEYKCKVSSKGLPSSIEKTISNATGQPREPQVYTLPPSQEEMTKNQVSLTCLVKGFYPSDIAVEWESNGQPENNYKTTPPVLDSDGSFFLYSRLTVDKSRWQEGNVFSCSVLHEALHNHYTQKSLSLSLGKIEGRMDLQLHWRLGEMVTRLPDGPAGSWEQLIQERRSHEVNPAAHLTGANSSLTGSGGPLLWETQLGLAFLRGLSYHDGALVVTKAGYYYIYSKVQLGGVGCPLGLASTITHGLYKRTPRYPEELELLVSQQSPCGRATSSSRVWWDSSFLGGVVHLEAGEKVVVRVLDERLVRLRDGTRSYFGAFMV
notes: Said to exist as a hexamer (dimer of trimers); Glycosylated; also called hTIGIT-Fc-LIGHT; TIGIT-Fc(IgG4)-LIGHT
The term Kd denotes a measure of binding affinity in units of concentration. A word on the koff: it is a measure of how fast the partners let go of each other. As usually defined, the kon is a measure of how fast the partners come together. The term EC50 denotes the concentration at which the effect is half-maximal. Consider B1, for which, in the experiment with recombinant human LTβR, the Kd amounted to 0.00352 µM, the off-rate constant (koff) was found to be 7.44e-05 s⁻¹ and the on-rate (kon) was determined as 21200 M⁻¹ s⁻¹. The EC50 in experiment [1] was found to be 0.086 µM.
